Here are results for six molecules from patent publication US20200317768A1 (published 2020).

Experiment in all cases: SPR (Biacore); KD of SG1 divided by KD of the variant for this FcgR;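 also: relative to parent M103205H795-SG1 carrying the SG1 human heavy chain constant region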
The target in experiment [1] is T1, human FcγRIIb extracellular domain with C-terminal His-tag (human, UniProt P31994 43-217).
T1 construct: Expressed in FreeStyle 293 cells and purified; also called humanFcgRIIb; not shown: C-terminal His-tag
T1 sequence: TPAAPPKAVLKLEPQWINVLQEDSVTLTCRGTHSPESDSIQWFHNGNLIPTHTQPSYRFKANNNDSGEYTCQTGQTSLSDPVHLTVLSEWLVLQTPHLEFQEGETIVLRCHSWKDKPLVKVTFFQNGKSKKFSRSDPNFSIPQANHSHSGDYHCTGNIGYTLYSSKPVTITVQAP

Experiment [2] has as its target T2, cynomolgus monkey FcγRIIa1 extracellular domain with C-terminal His-tag (cynomolgus monkey).
T2 construct: Expressed in FreeStyle 293 cells and purified; also called cyno FcγRIIa1; cynoFcgRIIa1; not shown: C-terminal His-tag
T2 chain: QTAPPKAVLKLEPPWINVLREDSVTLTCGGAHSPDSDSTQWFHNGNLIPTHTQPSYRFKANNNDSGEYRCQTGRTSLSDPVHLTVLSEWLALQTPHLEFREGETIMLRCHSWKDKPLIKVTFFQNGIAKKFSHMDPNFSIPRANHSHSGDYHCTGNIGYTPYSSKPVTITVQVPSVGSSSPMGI

For experiment [3], the target named is T3, cynomolgus monkey FcγRIIa3 extracellular domain with C-terminal His-tag (cynomolgus monkey).
T3 construct: Expressed in FreeStyle 293 cells and purified; also called cyno FcγRIIa3; cynoFcgRIIa3; not shown: C-terminal His-tag
T3 chain: T2 chain with P95T, T121A, A128S, H133P, D135N

Experiment [4] addresses T4, cynomolgus monkey FcγRIIIaS extracellular domain with C-terminal His-tag (cynomolgus monkey, UniProt Q8SPW2 21-206 at identity 1.00)).
T4 construct: Expressed in FreeStyle 293 cells and purified; also called cyno FcγRIIIaS; cynoFcγRIIIaS; not shown: C-terminal His-tag
T4 chain: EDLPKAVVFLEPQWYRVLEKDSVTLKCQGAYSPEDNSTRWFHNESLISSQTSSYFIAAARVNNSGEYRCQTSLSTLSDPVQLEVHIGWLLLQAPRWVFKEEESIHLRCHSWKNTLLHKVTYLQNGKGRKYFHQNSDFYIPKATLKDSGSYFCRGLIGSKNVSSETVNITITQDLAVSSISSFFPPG

The target in experiment [5] is T5, human FcγRIIIaV extracellular domain with C-terminal His-tag (human, UniProt P08637 17-208).
T5 construct: Expressed in FreeStyle 293 cells and purified; also called FcgRIIIaV; not shown: C-terminal His-tag
T5 sequence (P08637 17-208 F176V): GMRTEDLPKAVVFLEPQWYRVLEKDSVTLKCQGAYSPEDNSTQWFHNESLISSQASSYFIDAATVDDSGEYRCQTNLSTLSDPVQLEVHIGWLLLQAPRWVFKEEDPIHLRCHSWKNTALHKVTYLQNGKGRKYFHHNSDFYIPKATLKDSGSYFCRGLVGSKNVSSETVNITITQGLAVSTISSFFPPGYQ

Experiment [6] concerns the target T6, cynomolgus monkey FcγRIIa2 extracellular domain with C-terminal His-tag (cynomolgus monkey).
T6 construct: Expressed in FreeStyle 293 cells and purified; also called cyno FcγRIIa2; cynoFcgRIIa2; not shown: C-terminal His-tag
T6 chain: T2 chain with P95T, T121A, I127K, A128S, K130N, D135N, R142Q

Experiment [7] deals with T7, human FcγRIIaR extracellular domain with C-terminal His-tag (human, UniProt P12318 34-217).
T7 construct: Expressed in FreeStyle 293 cells and purified; also called human FcγRIIa (type R); FcgRIIaR; not shown: C-terminal His-tag
T7 chain: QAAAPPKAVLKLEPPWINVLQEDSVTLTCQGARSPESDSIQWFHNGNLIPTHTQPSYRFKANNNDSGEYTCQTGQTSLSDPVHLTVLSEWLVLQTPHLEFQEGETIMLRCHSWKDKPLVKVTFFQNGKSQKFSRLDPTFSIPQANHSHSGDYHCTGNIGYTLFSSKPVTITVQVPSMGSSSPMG

For experiment [8], the target named is T8, human FcγRIIaH extracellular domain with C-terminal His-tag (human, UniProt P12318 34-217).
T8 construct: Expressed in FreeStyle 293 cells and purified; also called human FcγRIIa (type H); FcgRIIaH; not shown: C-terminal His-tag
T8 sequence: T7 chain with R134H

Numbering of substitutions follows the chain as printed.

B1: M103205H795-MY179 / M103202L889-SK1 (antibody, human IgG1, kappa)
heavy: QVTLKESGPVLVKPTETLTLTCTVSGIDLSHDDISWVRQAPGKGLEWVGIISYAGSTYYASWAKGRLTISKDTSKNQVVLTMTNMDPVDTATYYCARGVPAYSHGGDLWGQGTLVTVSSASTKGPSVFPLAPSSKSTSGGTAALGCLVKDYFPEPVTVSWNSGALTSGVHTFPAVLQSSGLYSLSSVVTVPSSSLGTQTYICNVNHKPSNTKVDKKVEPKSCDKTHTCPPCPAPELLNGPSVFLFPPKPKDTLMISRTPEVTCVVVDVSEEDPEVKFNWYVDGVEVHNAKTKPREEQYNSTYRVVSVLTVLHQDWLNGKEYKCKVSNKALPAPIEKTISKAKGQPREPQVYTLPPSREEMTKNQVSLTCLVKGFYPSDIAVEWESNGQPENNYKTTPRVLDSDGSFFLYSKLTVDKSRWQQGNVFSCSVMHEALHNHYTQKSLSLSP
light: DIVMTQSPATLSLSPGERATLSCTSSQSVYHANWLSWFQQKPGQPPKLLIYWASTLAYGVPSRFSGSGSGTDFTLTISSLQPEDAATYYCAGGYGGGRYAFGQGTKVEIKRTVAAPSVFIFPPSDEQLKSGTASVVCLLNNFYPREAKVQWKVDNALQSGNSQESVTEQDSKDSTYSLSSTLTLSKADYEKHKVYACEVTHQGLSSPVTKSFNRGEC
notes: Position 396 variant derived from MY052, expressed with M103202L889-SK1 as light chain
For the molecule B1, the “KD fold (SG1 = 1)” value was 3.8 fold in experiment [1]; 1.7 fold in experiment [2]; 2.2 fold in experiment [3]; 0.13 fold in experiment [4]; 0.14 fold in experiment [5]; 2.5 fold in experiment [6]. Besides, the “KD fold (SG1 = 1)” value in experiment [7] was 0.5 fold; in experiment [8], 0.6 fold.

B2: M103205H795-MY182 / M103202L889-SK1 (antibody, human IgG1, kappa)
heavy: B1 heavy with R398V
light: B1 light
notes: as for B1
As for B2, the “KD fold (SG1 = 1)” value was found to be 3.8 fold in experiment [1]; 1.5 fold in experiment [2]; 2.2 fold in experiment [3]; 0.1 fold in experiment [4]; 0.12 fold in experiment [5]; 2.3 fold in experiment [6]. Besides, the “KD fold (SG1 = 1)” value in experiment [7] and in experiment [8] was 0.5 fold each time.

B3: M103205H795-MY183 / M103202L889-SK1 (antibody, human IgG1, kappa)
heavy: B1 heavy with R398W
light: B1 light
notes: as for B1
Regarding B3, the “KD fold (SG1 = 1)” value is 4.2 fold in experiment [1]; 1.5 fold in experiment [2]; 2 fold in experiment [3]; 0.1 fold in experiment [4]; 0.11 fold in experiment [5]; 2.5 fold in experiment [6]. Further, the “KD fold (SG1 = 1)” value in experiment [7] turned out to be 0.5 fold; in experiment [8] it was 0.6 fold.

B4: M103205H795-MY180 / M103202L889-SK1 (antibody, human IgG1, kappa)
heavy: B1 heavy with R398S
light: B1 light
notes: as for B1
On to B4, for which the “KD fold (SG1 = 1)” value in experiment [1] amounted to 2.4 fold; in experiment [2], 1.2 fold; in experiment [3], 1.4 fold; in experiment [4], 0.12 fold; in experiment [5] it was 0.14 fold; in experiment [6] it was 1.9 fold. Also, the “KD fold (SG1 = 1)” value in experiment [7] and in experiment [8] was 0.4 fold throughout.

B5: M103205H795-MY184 / M103202L889-SK1 (antibody, human IgG1, kappa)
heavy: B1 heavy with R398Y
light: B1 light
notes: as for B1
Consider B5, for which the “KD fold (SG1 = 1)” value in experiment [1] worked out at 4.2 fold; in experiment [2], 1.7 fold; in experiment [3], 2 fold; in experiment [4] it was 0.11 fold; in experiment [5], 0.12 fold; in experiment [6], 2.6 fold. Besides, the “KD fold (SG1 = 1)” value in experiment [7] and in experiment [8] was 0.6 fold in each case.

B6: M103205H795-MY181 / M103202L889-SK1 (antibody, human IgG1, kappa)
heavy: B1 heavy with R398T
light: B1 light
notes: as for B1
Turning to B6, the “KD fold (SG1 = 1)” value in experiment [1] is 3.3 fold; in experiment [2], 1.4 fold; in experiment [3] it was 1.8 fold; in experiment [4] it was 0.09 fold; in experiment [5], 0.11 fold; in experiment [6] it was 2.2 fold. The “KD fold (SG1 = 1)” value amounted to 0.4 fold in experiment [7] and 0.5 fold in experiment [8].
